Assay results reported in patent US20080267980A1 (MUSC FOUNDATION FOR RESEARCH DEVELOPMENT, published 2008).

Tests used:
Human C3dg-biotin [1] = target: T1, Human C3dg-biotin (human, UniProt P01024 955-1303, biotin (site not stated) in the SPR experiments); assay: SPR, C3dg-biotin captured on streptavidin chip
T1 construct: domain: C3dg; In the ELISA it is purified C3dg coated on wells; also called C3dg ligand; CR2 ligand C3dg
Procedure: (§1) Kinetic analysis of the interaction of the CR2 fusion proteins with C3dg-biotin was performed using surface plasmon resonance (SPR) measurements made on a BIAcore 3000 instrument. Human C3dg-biotin, prepared as described (36), was bound to the surface of BIAcore streptavidin (SA) sensor chips by injecting C3dg-biotin at 50 μg/ml over the surface of one flow cell of the chip at 2 μl/minute for 20 minutes. The flow buffer was 0.5×PBS+0.05% Tween 20. The SPR signal from captured C3dg generated BIAcore response units ranging from 250-500. Control streptavidin-coated flow cells were run in the absence of protein. Binding was evaluated over a range of CR2 fusion protein concentrations (15.6-500 nM) in 0.5×PBS, 0.05% Tween 20 at 25° C. at a flow rate of 25 μl/minute. CR2 fusion protein samples were injected in 50 μl aliquots using the kinject command. Association of the fusion proteins with the ligand was monitored for 120 seconds, after which the complex was allowed to dissociate in the presence of buffer only for an additional 120 seconds. […] Binding data were fitted to a 1:1 Langmuir binding model using BIAevaluation Version 3.1 software (BIAcore) and evaluated for best fit by low residual and χ² values. […]
(§2) A comparison of the affinity of the different recombinant fusion proteins for the CR2 ligand C3dg was determined by surface plasmon resonance measurements. […]

Human C3dg-biotin [2] = target: T1, Human C3dg-biotin; assay: SPR, biotinylated C3dg on streptavidin BIAcore chip
Procedure: as §1, §2

Human C3dg-biotin [3] = target: T1, Human C3dg-biotin; assay: ELISA, wells coated with purified C3dg, anti-complement inhibitor antibodies
Procedure: ELISA experiments were conducted as previously described. In ELISA experiments, CR2-containing constructs were added to wells coated with purified C3dg. Binding was detected by means of anti-complement inhibitor antibodies and enzyme-conjugated secondary antibodies. All CR2 containing constructs, but not sCD59 and sDAF bound to C3d.

Human C3dg-biotin [4] = target: T1, Human C3dg-biotin; assay: SPR (referred to)
Procedure: as §1, §2

T1 sequence (P01024 955-1303 limits assumed): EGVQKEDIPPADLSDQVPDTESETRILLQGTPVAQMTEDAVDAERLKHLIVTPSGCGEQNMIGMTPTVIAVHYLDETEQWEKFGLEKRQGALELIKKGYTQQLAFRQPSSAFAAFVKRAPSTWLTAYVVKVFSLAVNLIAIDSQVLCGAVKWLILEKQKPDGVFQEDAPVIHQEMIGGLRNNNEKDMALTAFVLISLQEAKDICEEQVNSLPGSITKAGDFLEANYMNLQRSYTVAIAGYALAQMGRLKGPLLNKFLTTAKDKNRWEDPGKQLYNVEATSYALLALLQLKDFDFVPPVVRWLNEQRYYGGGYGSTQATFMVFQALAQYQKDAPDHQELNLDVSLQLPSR

B1: soluble DAF (other, human, UniProt P08174 35-283, looked up)
chain: DCGLPPDVPNAQPALEGRTSFPEDTVITYKCEESFVKIPGEKDSVICLKGSQWSDIEEFCNRSCEVPTRLNSASLKQPYITQNYFPVGTVVEYECRPGYRREPSLSPKLTCLQNLKWSTAVEFCKKKSCPNPGEIRNGQIDVPGGILFGATISFSCNTGYKLFGSTSSFCLISGSSVQWSDPLPECREIYCPAPPQIDNGIIQGERDHYGYRQSVTYACNKGFTMIGEHSIYCTVNNDEGEWSGPPPEC
notes: range 1-249; also called sDAF; untargeted sDAF
binding result (Human C3dg-biotin [1]): no binding

B2: soluble CD59 (other, human, UniProt P13987 26-102, looked up)
chain: LQCYNCPNPTADCKTAVNCSSDFDACLITKAGLQVYNKCWKFEHCNFNDVTTRLRENELTYYCCKKDLCNFNEQLEN
notes: also called sCD59; untargeted sCD59
binding result (Human C3dg-biotin [2]): no binding

B3: DAF-CR2 (other)
chain: DCGLPPDVPNAQPALEGRTSFPEDTVITYKCEESFVKIPGEKDSVICLKGSQWSDIEEFCNRSCEVPTRLNSASLKQPYITQNYFPVGTVVEYECRPGYRREPSLSPKLTCLQNLKWSTAVEFCKKKSCPNPGEIRNGQIDVPGGILFGATISFSCNTGYKLFGSTSSFCLISGSSVQWSDPLPECREIYCPAPPQIDNGIIQGERDHYGYRQSVTYACNKGFTMIGEHSIYCTVNNDEGEWSGPPPECRSSGGGGSGGGGSGGGGSISCGSPPPILNGRISYYSTPIAVGTVIRYSCSGTFRLIGEKSLLCITKDKVDGTWDKPAPKCEYFNKYSSCPEPIVPGGYKIRGSTPYRHGDSVTFACKTNFSMNGNKSVWCQANNMWGPTRLPTCVSVFPLECPALPMIHNGHHTSENVGSIAPGLSVTYSCESGYLLVGEKIINCLSSGKWSAVPPTCEEARCKSLGRFPNGKVKEPPILRVGVTANFFCDEGYRLQGPPSSRCVIAGQGVAWTKMPVC
notes: also called human DAF-CR2; fusion protein with CR2 at the C-terminus
binding result (Human C3dg-biotin [3]): binds

B4: CR2-CD59 (other)
chain: ISCGSPPPILNGRISYYSTPIAVGTVIRYSCSGTFRLIGEKSLLCITKDKVDGTWDKPAPKCEYFNKYSSCPEPIVPGGYKIRGSTPYRHGDSVTFACKTNFSMNGNKSVWCQANNMWGPTRLPTCVSVFPLECPALPMIHNGHHTSENVGSIAPGLSVTYSCESGYLLVGEKIINCLSSGKWSAVPPTCEEARCKSLGRFPNGKVKEPPILRVGVTANFFCDEGYRLQGPPSSRCVIAGQGVAWTKMPVCSGGGGSLQCYNCPNPTADCKTAVNCSSDFDACLITKAGLQVYNKCWKFEHCNFNDVTTRLRENELTYYCCKKDLCNFNEQLEN
notes: also called CR2-human CD59; fusion protein with CR2 at the N-terminus
binding result (Human C3dg-biotin [4]): binds
